The values that follow come from article PMC7794242, “Cryo-EM analysis of the HCoV-229E spike glycoprotein reveals dynamic prefusion conformational changes” (Nature Communications, 2021).

Test [1] has as its target T1, HCoV-229E S glycoprotein wild-type soluble ectodomain (residues 1-1116) with C-terminal GCN4 trimerization … (HCoV-229E, UniProt P15423 16-1116). Briefly: SPR; OpenSPR; hAPN immobilised on COOH sensor chip; S trimer peak 2 sample injected at 0, 6.25, 12.5, 25 and 50 nM; HBS-EP+ buffer; 298 K; one-to-one binding model. Particulars: both partners purified.
The target in test [2] is T1, HCoV-229E S glycoprotein wild-type …. Briefly: SPR; OpenSPR; hAPN immobilised on COOH sensor chip; S trimer peak 3 sample injected at 0, 3.13, 6.25, 12.5 and 25 nM; HBS-EP+ buffer; 298 K; one-to-one binding model. Conditions: both partners purified. A general note: SPR reads the build-up and loss of mass on a sensor chip optically.

In general, Kd refers to a measure of binding affinity in units of concentration. A high value points to weaker binding. One may read the koff as a measure of how fast the partners let go of each other. Broadly, the kon is the rate constant with which the complex forms.

B1: human aminopeptidase N (receptor)
chain: DQSKAWNRYRLPNTLKPDSYRVTLRPYLTPNDRGLYVFKGSSTVRFTCKEATDVIIIHSKKLNYTLSQGHRVVLRGVGGSQPPDIDKTELVEPTEYLVVHLKGSLVKDSQYEMDSEFEGELADDLAGFYRSEYMEGNVRKVVATTQMQAADARKSFPCFDEPAMKAEFNITLIHPKDLTALSNMLPKGPSTPLPEDPNWNVTEFHTTPKMSTYLLAFIVSEFDYVEKQASNGVLIRIWARPSAIAAGHGDYALNVTGPILNFFAGHYDTPYPLPKSDQIGLPDFNAGAMENWGLVTYRENSLLFDPLSSSSSNKERVVTVIAHELAHQWFGNLVTIEWWNDLWLNEGFASYVEYLGADYAEPTWNLKDLMVLNDVYRVMAVDALASSHPLSTPASEINTPAQISELFDAISYSKGASVLRMLSSFLSEDVFKQGLASYLHTFAYQNTIYLNLWDHLQEAVNNRSIQLPTTVRDIMNRWTLQMGFPVITVDTSTGTLSQEHFLLDPDSNVTRPSEFNYVWIVPITSIRDGRQQQDYWLIDVRAQNDLFSTSGNEWVLLNLNVTGYYRVNYDEENWRKIQTQLQRDHSAIPVINRAQIINDAFNLASAHKVPVTLALNNTLFLIEERQYMPWEAALSSLSYFKLMFDRSEVYGPMKNYLKKQVTPLFIHFRNNTNNWREIPENLMDQYSEVNAISTACSNGVPECEEMVSGLFKQWMENPNNNPIHPNLRSTVYCNAIAQGGEEEWDFAWEQFRNATLVNEADKLRAALACSKELWILNRYLSYTLNPDLIRKQDATSTIISITNNVIGQGLVWDFVQSNWKKLFNDYGGGSFSFSNLIQAVTRRFSTEYELQQLEQFKKDNEETGFGSGTRALEQALEKTKANIKWVKENKEVVLQWFTENSK
In test [1], B1 showed a Kd of 36.3 nM, a koff of 0.00115 s⁻¹ and a kon of 31800 M⁻¹ s⁻¹. In test [2], this molecule displayed a Kd of 6.78 nM, a koff of 0.000485 s⁻¹ and an association rate constant (kon) of 71500 M⁻¹ s⁻¹.
